Source: the DeepSol protein solubility set

Assay: soluble on expression in E. coli; label from the status in PepcDB or PDB records
With “MSQPLTTNSVLVEEAAADGDSSAAAPPLFDYHRIDQKLLQNIVYDALVWSTLNCLLVGDKSVQRSGRVPGVGLVHLPLSLLPGPFPESHWKQGCELAPIFNELVDRVSLDGKFLQESLSRTKNADEFTSRLLDIHSKMLQINKKEDIRMGIVRSDYMIDEKTKSLLQIEMNTISTSFALIGCLMTGLHKSLLSQYGKFLGLNSNRVPANNAVDQSAEALAKAWSEYNNPRAAILVVVQVEERNMYEQHYISALLREKHHIRSIRKTLTEIDQEGKILPDGTLSVDGQAISVVYFRAGYTPKDYPSESEWRARLLMEQSSAIKCPTISYHLVGTKKIQQELAKPGVLERFVENKDHIAKLRACFAGLWSLEDSDIVKKAIENPELFVMKPQREGGGNNIYGDELRETLLKLQEAGSQEDAAYILMQRIFPATSPAILVRDGNWDTGHVISEAGIFGTYLRNKDKIIINNESGYMVRTKISSSYEGGVLPGFGVVDTVYLT” the “soluble on expression in E. coli” value was “soluble”.
In the case of “MGSDKIHHHHHHKHIVIMMTFKQDILPIIEALCSEGYHVTVIGKKIYQKDINNINHAYFIPAGNKYIMRHMKVLSKAKIIILDTYYLMMGGYQKKKGQTVIQTWHAAGALKNFGLTDHQVDLKNKAMVRQYKKVYDATDYYLVGGEKMAQCFIQSFDASPSQMLKFGLPRLTQYFRSNLKLEQQRLKKKYHITNKLAVYVPTYREGQVAQRTIDKENFERHLPNYTLLSHLHPSTVDCQTSHSIDVTSLLIMADIIISDYSSLPIEASALNKPTLIYNYDEQQYEKVRGLNEFYYAIPERYKMSNEESIIQAIQDNDEQFQSLFNDWHQYNSKDSLNQLVHFINKLVK”, the “soluble on expression in E. coli” value is reported as “not soluble”.
With “MSLNVIMAGIDYTLAPIDIREKFSFTKSTLQAVYNDLLKNENIFGAVIVSTCNRTELYLSCEEGLYINPFELLCDAANFDYEEYSNMHVLRTGVDVIRHLCELACGVKSQIWGEDQIITQVRNAIELAREMNASDSTLEVMFRIAVTSAKKVKTTLKLSSTERSIAYSALKIIKSKENISKALVIGNGEIGRLMASILIENGYDTTITLRRYRHGDNIIPLGAKTIEYVARYEKLKDCDVVISATLSPHYTLEIDKIDRIKYPRLFIDLAVPRDIDPKIKSLDNVELYDLDSIYAGEVDKNRTEQMIQVKKIIDKYIFDYYRWYEYRKRLVLTEGHHHHHH” the “soluble on expression in E. coli” value was “soluble”.
With “MRITIVTIFPEMVEVIKKYGVIARAVERGIVEINVENLRDYTTDRHRTVDDYQYGGGYGMVMKPEPFFRFYESYVEKYGKPYVILTSPQGRIFNYKIAEELSKKDDIVIFCGRYEGIDERVMSIVDDEISIGDYILTGGELPAMVITDAVVRLVPGVVERESVERESFHQGLLDHPVYTRPYEYKGMKVPDVLLSGDHEKVELWRRKESIKKTLAKRPDLFLAKELDEMDKLAIIELFRELMEKC” the “soluble on expression in E. coli” value was “soluble”.
With “MDVLIIGGGEAGLVAGCRALTMGQKVILVEKNGYLGGATILNGSNVVGTGSDVAAQIFDNNHDTPEMLAQDVARESLETNYPALTDLMVHNIGPAIDFISKFADLHYQKAQTQTPEHSINRQIELPSASSYEFIQKVSKAFAAAGGQIMLDTRVEKLMLDNDKKLRGVIAAQKDQTVNIKARSVVLAAGGHGANQKMRGTESEGIDYYGPMTSTGDAYQFNGDLDLQTHDLGWYKLYPHGVEVEPGVAKLTTYASKQATDMGAIYVNSKGDRIVNESNVYTTFRNAILKQADKVAYLVMDERTWKKVYDLLILHDFTPEEIKSFFENKGKRPVFVKGSLESAAEQAGIVVDELVQTVKNYQGYVQDGHDHDFGRDPKYLHQFEGETFYIIEQRDRFATTLGGYSVDADNLQLVTTKNAPVANYFGAGEIIGGANGHDSMPSMMNTWGISSGYVAGAAASENAQRQATAGAAALEHHHHHH” the “soluble on expression in E. coli” value was “not soluble”.
With “MSLTIVAMNDVVKSFTGDIILEKVSLQLEEGERVGLIGRNGEGKSTILKILKGTEGVDSGIVTSKKGAKIGLLEQLSTVDPNIIVEQYLRTSFGELEELEKELRALEGEMATNSSEKLMNRYGDKMALFGELGGYEMDANLNKVVNGLGIGSLLSQRWGDLSGGEKTKVALAHLLLQKTDLLLLDEPTNHLDLMAVEWLTAFLQHYSGTVLVVSHDRYFLDEVVEKMVELENRELIVYHTNFSGYLKEREERLLREFQDYKDQQKKIKKMQQAIKRLRQWAMQANPPNDAMFRRAKNMERALERMEKVKRPVLTQKQMQLQFDEAGRSGQEVVVMENLSKSFSEKAIVQDVSLQIRQGERVAIIGENGAGKSTLLKIMEGKVVPDVGMIKVGASVKIASLSQQMEELNEKLTVLDAFRDKVAVTEGEARQMLAGFMFYGEMVFRKVGNISGGERMRLRLAQFINMPVNTLILDEPTNHLDIASREILEEAIRAFSGTIITVSHDRYFIDQLCSKVIWLENKQLTVYEGNYSYATSKREGHHHHHH” the “soluble on expression in E. coli” value was “not soluble”.
For “GVVNVVVPQYVNCPDVCHWESAIMIYLMGELVERGLQDKVVFVTIGVNPYYETIEDGKRYMESVAGDYLDKGVKWIWVLDDVEKQEELWNMFGIAVSLYCVKNDGSIIDELTYDDYLKLEESGECSFVGVNHTAGFIIVDGDGVFRYFMSPTEDGWKRGQRQVAETILQYILKLVEERK”, the “soluble on expression in E. coli” value was “not soluble”.
In the case of “MGSDKIHHHHHHAADKRIDGNGNPETREIKISDYDEITFVGSADFEYEQSDKAPYLSVTIDENLFDYLVTEVEGGTLKIYPKSIKKGFNNNSYDLRPTVYKIKSNSKELKELNTVGSGSFIISKPTKVNRMEINMAGSGNVELRGPVKGYKLECNMAGSGNIIAKDIQLDNLSCSLASSGEIEVIGTVDRASFNVAGSGEIKAFDCQARKAECNIASSGEISVYATQILDANIVGSGEIHYKGDPEISKSIMGSGSINKVK”, the “soluble on expression in E. coli” value is reported as “not soluble”.
In the case of “MAKVRETYVCSACGANTPQWRGQCPTCKAWNTLDAVTVARETRSGVRRQGAPDSVRPRPLRDVSDEGGSPFGTGLEALDRVLGSGLVPGAAILFGGEPGIGKSTLLLQVAGAVAASGRDVLYLSGEESLTQLKGRAERLGVLHERLLAVATSRVEDVFSVLESGTPPALLVLDSVQTLTSDLAEGLPGNVSQVRAVATEVVDRCKRAGTAVLLVGHVTKDGNLAGPRLLEHMVDTVVSLEGDRRQMFRLLRVLKNRFGPNQELLVFQMAQRGLEVVEDPSTFFLGARDPALSGTAVVMAVDGQRPFAVEVQALVTRSYLAIPRRTGLGFDVNRLHLLLAVLEKRLRLNFGQVDIYAKIGGGMRLQDPGMDLALVAAVLSSFYDVALPERAVLWGEVDLNGQVRPVAAHDIRLGQAARLGYGPVLHPGEGRGAVPTVVELQARLFGKSGAPRHNPSELEHHHHHH”, the “soluble on expression in E. coli” value is reported as “not soluble”.
In the case of “MGSDKIHHHHHHMASIKDVAKLAGVSIATVSRVINGYNNVSEETRKKVIDAIRKLNYHPVYAVKGAVLKRTIGVLVPNFGGFHYNEILTGIEKEAIKRDFTLMISTTLHRTSVELERLEVFFAKRVDGIIVCSSKKDEEQLERLIKSAIPVVVVDREEPEIRLDNVGIDNYAAGRMCAKYLLEKGHRKVLLLKGRKDIYSFSDRERGFIDYSTRHGIDVKVTPCGYFAEHGYHAVERYLKKHGRDFTAIFAINDLSAFGALKALHDLGVLVPDEVSVMGFDDDPISSYTIPPLTTVRQPREEMGRVAFEILYERLSGKKGVARRVVLPVEIVERESVKQL”, the “soluble on expression in E. coli” value is reported as “not soluble”.
With “MGSQVQKSDEITFSDYLGLMTCVYEWADSYDSKDWDRLRKVIAPTLRIDYRSFLDKLWEAMPAEEFVGMVSSKQVLGDPTLRTQHFIGGTRWEKVSEDEVIGYHQLRVPHQRYKDTTMKEVTMKGHAHSANLHWYKKIDGVWKFAGLKPDIRWGEFDFDRIAEDGRETFGDK” the “soluble on expression in E. coli” value was “soluble”.
For “MEKRRVILVTDGDEFACRAIERVAAEIGGRCISRSQGNPTKLSGEQLVELILQTPHDPVFVMFDDCGALGEGAGEQALRYVATHEQIQVLGALAVASNTHQHEWTKVHVSIDRDGVMTEYGVDKEGFRDLEIGRINGDTVYCLDRLNIPLIVGIGDIGKMGYRDHAKYGAPITRKAVELILERSGGHAGKRKETESADREAAR”, the “soluble on expression in E. coli” value was “not soluble”.
In the case of “MPVDTKTVLVVRHGTAGRRSRYKGDDRKRPLDKRGRAQAEALVAQLMAFGATTLYAADRVRCHQTIEPLAQELDQLIHNEPLLTEEAYAADHKAARKRLLEIAGRPGNPVICTQGKVIPGLIEWWCERAKVRPETTGNRKGSTWVLSLSDGELVGADYLSPPDEKLEHHHHHH”, the “soluble on expression in E. coli” value is reported as “not soluble”.
With “GSGEQHFAEGHEQAFTGKESAAMKDVVSGHATHEAGKSTTAQPTETRSTSESSHSLRDSIMAQVRDAVTTREPNGNGRISIRLNPVELGELTINVRVADQQVKVDVVAANGQVRDILLNNLDNLKENFSRQNLTMTGFDVSTGT” the “soluble on expression in E. coli” value was “not soluble”.
In the case of “MNEIYDREQMIKLLDLAKNTEMELPINLAIGLGLRISEVLGLTWDNIDFEENTITVNKITSRINGSVILKEPKTESSVRKISSPKELMSLLKEYKIKQNKNLLKSSIRNNNNLLFFNKKCEPIAEDVMSKKFKRFLEKNELPHIRFHDLRHSHVTLLINSKVPIKVISERVGHSNISTTLSVYSHVLKEMDKEASDKISESLFNANLEHHHHHH”, the “soluble on expression in E. coli” value is reported as “not soluble”.
For “MKIGIIGVGKMASAIIKGLKQTPHELIISGSSLERSKEIAEQLALPYAMSHQDLIDQVDLVILGIKPQLFETVLKPLHFKQPIISMAAGISLQRLATFVGQDLPLLRIMPNMNAQILQSSTALTGNALVSQELQARVRDLTDSFGSTFDISEKDFDTFTALAGSSPAYIYLFIEALAKAGVKNGIPKAKALEIVTQTVLASASNLKTSSQSPHDFIDAICSPGGTTIAGLMELERLGLTATVSSAIDKTIDKAKSL”, the “soluble on expression in E. coli” value was “soluble”.
In the case of “MGSDKIHHHHHHMNLDHLRYFVALSRTENYTQTAKLLHITQPSLTKAIHSLEAELNIDLFQKAGRSVTLTPAGKVFASDVESALLLLDKSVTNIKRFDQQKAPIRIAALRTLSIKWLPDIAQRFLQLSPHAAVQFQFNTDTGLSPDILNGLRNNKYDVAFCSKMDHFSDIEFFPVAEQTMVCITPTTHPLANRSSINLAETLAYPQITFSQRSGLHPIMQKLFNDCGGQPISAYAVEEDQAIAGLVASGFGIAVVPNMSILQTMPVKIIPLSFPTWQRILYMGTLKHRTPQPAVEEFITFVRDQSKTLSVNNI”, the “soluble on expression in E. coli” value is reported as “not soluble”.
For “GHNLSYSVSANLSNYDARITRYDNPEKVFAKSYYPGMKLGEIWGYHVDGLFASDEEAAQYSSQVDLGVVAKNLPQGTWRAGDLKFADLDGDGKISVGEDSALNPGDMKIIGNELPTLQYGFSGSLNYMGFDIYAFFQGTGNHYWYPNGYNYQFWGSFSDPVAGYIPRNFIDQCWSKDNPGAYFPRPLGQSAKNGQLSFVNDRYLQNIRYMRFKNLTIGYSIPGKILSKVSIQQLRVYFTAENLCYWSPIKKHSKYIDPEAAFSRSSNQLNAMYYPWAKTYMFGIDITL”, the “soluble on expression in E. coli” value was “not soluble”.
In the case of “MDKKTACAHVAEPCEFSYSTRDAIIYALGVGARAKEDLCYVYENHEDFKVLPSYIVAPGFQAHTLMDWPGVEFDLQRVLHGEQYIEVYQPLSAEGKLKSEARVVDILDKGSGALILGNVTTYDENGKKIAMQQFSTFQTGSGNFGGDRTSPHEIKAATVPDRAPDAVIEQKTTVDQAALYRLGSGDMNPLHVDPEFAKMSGFKTPILHGLCSLGFATRHVIAAWAGNDSDKFKAIKVRFSSPVLPGQTLVTETWKNGKRIIFQMKVKETGKIVISNAFIDLHEASELPTVPIDLASKL”, the “soluble on expression in E. coli” value is reported as “not soluble”.
For “MSDPAIAVLPYGMKLGPALSGLPLDQVNWPLGCPERLVGKTLGDLGAGDHLLVYPRTGTHFQLSRGTRARISLIMAEPAVIHAKHYALLRVTWRRFHRVLTFNQAAVDRLPNARLLLFGSTWVPEWQSLTPEKVAQCSLIASAKRDSTGHKLRHAVVDWVRASDQDVAVLGRGYQPFDSKADGLAPYRYSVVIENVQERNYFSEKLLDAVFCETVPIYWGCPNIADFVDTTAMILCTREEDIRRAVAEMSAEDYAARLPALRALKQQLAPYAAHEARAARMILDELLEHHHHHH”, the “soluble on expression in E. coli” value was “soluble”.
